Laboratory results as given in PMC9098882.

Legend:
[1] = target: CRL5^Ozz, reconstituted five-component complex (Ozz–EloBC + Cul5–Rbx1) (human) (UniProt Q9BR09); experiment: AUC; sedimentation velocity, 50,000 rpm, 20 °C, interference optics; 10 mM sodium phosphate, 1.8 mM potassium phosphate pH 7.2, 137 mM NaCl, 0.27 mM KCl; c(s) and two-dimensional c(s,f/f0) analysis of the same data; co-purified subcomplexes alone (Ozz–EloBC 0.35 or 1.00 mg/ml, Cul5–Rbx1 0.21 mg/ml) and their 1:1 mixture (0.75 mg/ml)
[2] = target: CRL5^Ozz, reconstituted five-component complex (Ozz–EloBC + Cul5–Rbx1) (human) (UniProt Q9BR09); experiment: SEC; purified Ozz–EloBC and Cul5–Rbx1 mixed 1:1; Superose 6 10/300GL, 50 mM Tris pH 7.6, 150 mM NaCl, 0.3 ml/min; fractions on SDS gels stained with SYPRO Ruby
[3] = target: CRL5^Ozz, reconstituted five-component complex (Ozz–EloBC + Cul5–Rbx1) (human) (UniProt Q9BR09); experiment: co-sedimentation; 15–45% glycerol gradient ultracentrifugation with micro-fractionation; 20 mM Tris–HCl pH 7.6, 150 mM NaCl; 55,000 r.p.m., 8 h (also 12 h), 4 °C; fractions on SDS gels stained with SYPRO Ruby, densitometry
[4] = target: Ozz–EloBC subcomplex (human) (UniProt Q9BR09); experiment: AUC; sedimentation velocity, 50,000 rpm, 20 °C, interference optics; 10 mM sodium phosphate, 1.8 mM potassium phosphate pH 7.2, 137 mM NaCl, 0.27 mM KCl; c(s) and two-dimensional c(s,f/f0) analysis of the same data; co-purified subcomplexes alone (Ozz–EloBC 0.35 or 1.00 mg/ml, Cul5–Rbx1 0.21 mg/ml) and their 1:1 mixture (0.75 mg/ml)
[5] = target: Ozz–EloBC subcomplex (human) (UniProt Q9BR09); experiment: AUC; sedimentation velocity, isotherm of signal-weighted-average s (3 to 7 S) of Ozz–EloBC at 1.8 to 13.3 μM; reversible monomer–dimer self-association model (dimer to monomers of the 1:1:1 complex), SEDPHAT; same buffer, 20 °C

Sequence of Cul5–Rbx1 subcomplex (Q93034 whole entry): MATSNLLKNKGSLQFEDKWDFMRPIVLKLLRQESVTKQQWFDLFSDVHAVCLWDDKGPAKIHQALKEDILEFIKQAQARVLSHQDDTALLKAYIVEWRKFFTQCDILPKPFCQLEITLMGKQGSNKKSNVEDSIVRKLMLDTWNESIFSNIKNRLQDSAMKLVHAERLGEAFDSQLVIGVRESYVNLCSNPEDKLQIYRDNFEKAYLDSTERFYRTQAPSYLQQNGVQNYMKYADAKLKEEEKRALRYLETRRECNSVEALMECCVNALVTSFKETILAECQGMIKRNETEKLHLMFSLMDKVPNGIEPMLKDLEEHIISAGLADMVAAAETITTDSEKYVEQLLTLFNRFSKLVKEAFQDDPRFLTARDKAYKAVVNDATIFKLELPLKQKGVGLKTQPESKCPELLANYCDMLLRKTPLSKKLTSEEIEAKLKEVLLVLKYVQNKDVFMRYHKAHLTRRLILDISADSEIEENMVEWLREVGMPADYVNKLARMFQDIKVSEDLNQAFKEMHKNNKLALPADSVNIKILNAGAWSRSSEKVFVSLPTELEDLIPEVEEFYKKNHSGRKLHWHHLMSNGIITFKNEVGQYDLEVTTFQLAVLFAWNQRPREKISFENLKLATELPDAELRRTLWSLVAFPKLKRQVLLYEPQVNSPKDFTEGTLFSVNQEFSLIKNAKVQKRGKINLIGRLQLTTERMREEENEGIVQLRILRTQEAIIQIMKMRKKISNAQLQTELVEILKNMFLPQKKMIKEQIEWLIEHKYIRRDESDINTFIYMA
Sequence of Cul5–Rbx1 subcomplex (P62877 whole entry): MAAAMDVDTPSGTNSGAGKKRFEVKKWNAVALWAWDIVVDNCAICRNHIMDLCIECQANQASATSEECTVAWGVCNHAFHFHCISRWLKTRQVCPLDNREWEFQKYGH

percent of total protein in the dimer peak, c(s) [1] | percent of total protein in the dimer peak, c(s,f/f0) [1] | stoichiometry N [1] | stoichiometry N [2] | stoichiometry N [3] | percent of total protein in the peak of the 1:1:1:1:1 complex, c(s) [4] | percent of total protein in the peak of the 1:1:1:1:1 complex, c(s,f/f0) [4] | stoichiometry N [4] | percent of total protein in the dimer peak, c(s) [4] | percent of total protein in the dimer peak, c(s,f/f0) [4] | Kd [5] | Substance
5% | 8% | 2 | 2 | 2 |  |  |  |  |  |  | CRL5^Ozz, reconstituted five-component complex (Ozz–EloBC + Cul5–Rbx1) (from UniProt Q9BR09 1-285; Q15370 1-118; Q15369 1-112; Q93034 1-780; P62877 1-108)
 |  |  |  |  | 55% | 48% | 1 |  |  |  | Cul5–Rbx1 subcomplex (from UniProt Q93034 1-780; P62877 1-108)
 |  |  |  |  |  |  | 2 | 53% | 52% | 0.7 µM | Ozz–EloBC subcomplex (from UniProt Q9BR09 1-285; Q15370 1-118; Q15369 1-112)
